The data set can be described thus: yeast display, Sf9 membrane polyspecificity reagent, FACS + sequencing; frameworks hold sequencing errors. In short, it runs like this: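 Nanobodies from a synthetic yeast display library (Saccharomyces cerevisiae BJ5465), induced 36–48 hours with galactose, were stained 1 hour at 4 °C with 10% biotinylated, detergent-solubilized Sf9 membrane reagent, enriched on streptavidin microbeads, then FACS-sorted. Anti-HA (expression) and streptavidin (reagent binding) fluorescence set low and high (top ~1%) gates. Polyreactivity labels come from the gate of origin. Genes were colony-PCR amplified, MiSeq 2 × 250 sequenced and filtered by CDR length.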
Regarding “QVQLVESGGGLVKAGGSLRLSCAASGRTFSRYAMGWYRQAPGTEGEVVAAISYSGASTYYADSVKGRFTISRDNAKNTVYLQMNSLKPEDTAVSYCAARAPGPAPPQIRYGYWGQGTQVTVSS”, the “polyreactivity (PSR sort gate)” value is on record as “high polyreactivity”.

As for “QVQLVESGGGLVKAGGSLRLSCAASGRTFVYNAMGWYRQAPGKERELVADIDGGGDRTYYADSVKGRFTISRDNAKNKVFLQMNSLKPEDTAVYYCARDPGDTYYYSYPEGDYWGQGTQVTVSS”, the “polyreactivity (PSR sort gate)” value was “low polyreactivity”. Consider “QVQLVESGGGLVKAGGSLRLSCAASGRTFYVNAMGWYRQAPGKEREFVAAISRRGGSTYYADSVKGRFTISRDNAKNTVYFQLNSLKPEDTAVYYCATGYHRWSSWALDYWGQGTQVTVSS”, for which the “polyreactivity (PSR sort gate)” value is listed as “high polyreactivity”. As to “QVQLVESGGGLVKAGGSLRLSCAASGSIFDGNAMGWYRQAPGKERELVADISRGGSTYYADSVKGRFTISRDNAKNTVYLLMNSLKPEDTAVYYCNVEFFFWPYEYGYWGQGTQVTVSS”, the “polyreactivity (PSR sort gate)” value is listed as “low polyreactivity”. As to “QVQLVESGGGLVKAGGSLRLSCAASGSIFQSNAMGWYRQAPGKERELVAAIRTSSGGGTYADSVKGRFTISRDNAKNTVYLQINSLKPEDTAVYDCNARKNNGGKWGYDYWGQGTQVTVSS”, the “polyreactivity (PSR sort gate)” value is “high polyreactivity”. In the case of “QVQLVESGGGLVKAGGSLRLSCAASGSIIGFYAMGWYILAPGKERELVAAITRGGGSTFYADSVKGRFTFSRDNAKNTVYLQMNSLKPEDTAVYYCAATVYRYHGPGYYYWGQGTQVTVSS” it was “high polyreactivity”; in that of “QVQLVESGGGLVKAGGSLRLSCAASGSISSGYVMGWYRQAPGKERELVASISYSGTSTYYADSVKGRFTISRDNAKNTVYLQMNSLKPEDTAVYYCAALSRRRFGYWGQGTQVTVSS”, “high polyreactivity”. Regarding “QVQLVESGGGLVKAGGSLRLSCAASGSTFERYAMGCYRQAPGKEMELVAAINWSGGGTYYADSVKGRFTISRDNAKNTVYLQMNSLKPVDTAVYYCAADSGTVVFSLWWYEYYYWGQGTQVTVSS”, the “polyreactivity (PSR sort gate)” value is given as “low polyreactivity”. As for “QVQLVESGGGLVKAGGSLRLSCAASGSTFRYYVMGWYRQAPGNERELVAAISRGGRTYYADSVKGRFTISRDNAKYSVYLQMNSLKPEDTAVYYCAVDYIVQSGSRIAGDYWGQGTQVTVSS”, the entry is “high polyreactivity”; as for “QVQLVESGGGLVKAGGSLRLSCAASGSTFVGYAMGWYRQAPGKEREIVAAITRGGSTNYADSVKGRFTISRDNAKNTVYLQMNSLKPEDTAVYYCAARDRREGFNFDYWGQGTQVTVSS”, “low polyreactivity”; as for “QVQLVESGGGLVKAGGSLRLSCAASGYNFIVYTMGWYRQAPGKERELVAAISSGGITDYADSVKGRFTISRDNAKNTDYLQMNSLNPEDTAVYYWGQGTQVTVSS”, “low polyreactivity”. For the sequence “QVQLVESGGGLVKAGGSLRLSCAASGYTFLFNVMGWYRQAPGKEREIFATIRYSGGSTYYADSVKGRFTISRDNAKNTVYLQMNSLKPEDTAVYYCAARYAWYTSYCSRKYDYWGQGTQVTVSS”, the “polyreactivity (PSR sort gate)” value is “high polyreactivity”.

As to “QVQLVESGGGLVKAGGSLRLSCAASGYTFRSYAMGWYRQAPGKEREKVARITFRGTSTYADSVKGRFTISRDNAKNTVYLQMNSLKPEESAVYYCNTSRAPWGNGYKRYDYWGQGTQVTVSS”, the “polyreactivity (PSR sort gate)” value was “low polyreactivity”. As for “QVQLVESGGGLVKAGGSLRLSCDASGSILWENAMGWYRQAPGKERELVATISVSGGGTYYADSVKGRFTISRDNAKNTVYLQMNSLKPEDTAVYYCNARYGNESQGWEDYWGKGTQVTVSS”, the entry is “low polyreactivity”; as for “QVQLVESGGGLVKAGGSLRLSCSASGSTFRSNAMGWYRQAPGKERELVAGISSGGGTYYADSVKGRFTISRDNAKNTVYLQMNSLKPEDTAVYYCAKVVYFGWSVQYYYWGQGTQVTVSS”, “low polyreactivity”. In the case of “QVQLVESGGGLVKAGGSLRLTCAASGSIFRYYAMGWYRQAPGKERELVAAISGSGGSTYYADSVKGRFTISRDNAKNTVYLQMNSLKPEDTAVYYCARVRGCYDKMYYWGQGTQVTVSS” it was “high polyreactivity”; in that of “QVQLVESGGGLVKAGGSLSLICAASGFTFGVYAMGRYRQAPGKERELVAAIRRTGGSTYYADSVKGRFTISRDNAKNTVYLQMNSLKPEDTAVYYCAAHAISYQSRYRYRYGSVDYWGQGTQVTVSS”, “high polyreactivity”. “QVQLVESGGGLVKAGGSLSLSCAASGFTVYRYTMGWYRPAPGKEREVVARITYSGGSTYYADSVKVRFTISRDNAKNTVYLQLYCLKPVDSAVYYCNARSDFYSRYGYKYDYWGQGTQVTVSS”: the “polyreactivity (PSR sort gate)” value is “high polyreactivity”. As for “QVQLVESGGGLVLAGGSLRLICAGSGRIFYTNTMGWYRQAPWKGRELVAAIRSGTRTYYADSVKGRFTISRDNAKNTFYLLMNILKPEATAVYYCAAYYSYYGGDYWGQGTQVTVSS”, the entry is “low polyreactivity”; as for “QVQLVESGGGLVLAGGSLRLSCAASGRILGSYAMGWYRQAPGKERELVAGISWRGGRTSYADSVKGRFTISRDNAKNPVYLQMNSLKPEDTAVYYCATRSSSRKYGYWGQGTQVTVSS”, “high polyreactivity”. As for “QVQLVESGGGLVLAGGSLRLSCAASGRIYVFYAMGWYRQAPGKEREFVATISYSGDTTYYADSVKGRFTISRDNAKNTVYLQMNSLTPEDTAVYYCAADQVPSYYYVPLGYDSWGQGTQVTVSS”, the entry is “low polyreactivity”.

On to “QVQLVESGGGLVLAGGSLRLSCAASGRTFELNALGWYRQAPGKERELVAAISWSGGSTYYADSVKGRFTISRDNAKNTVYLQMNSLKPEDTSVYYCAAQYQQGPFVKYYYWGQGPQVTVSS”, for which the “polyreactivity (PSR sort gate)” value is listed as “high polyreactivity”. Take “QVQLVESGGGLVLAGGSLRLSCAASGSTFGDYAMGWYRQAPGNERELVAAISARGASTYYADSVKGRFTISRDNAKNTVYLQMNSLKPEDTAVYYCAARYVSSGRRFDYWGQGTQVTVSS”: the “polyreactivity (PSR sort gate)” value is listed as “high polyreactivity”. “QVQLVESGGGLVLAGGSLRLSCAASGSTFTIYALGWYRQAPVKQRELVAAITSGGSTYADSVKRRFTISRDNAKNTVYLEMNSLKPEETAVDYCATVTFSHAQRTWYDYWGQGSQVTVSS”: the “polyreactivity (PSR sort gate)” value is “high polyreactivity”. As for “QVQLVESGGGLVLAGGSLRLSCAASGTIFGYYAMGWYRQAPGKDRELVAAITSDGDTYYADSVKGRFTISRDNAKNTVYLQMNSLKPEDTAVYYCNATYGGPYYIQYDYWGQGTQVTVSS”, the entry is “low polyreactivity”; as for “QVQLVESGGGLVLAGGSLSLSCAASGSIFNWYAMGWYRKAHGKERELVAAISWRGGSTYYADSVKGRFTISRDNAINSVYFQMNSLKPEDTAVYYCASDGGGDHMDYWGQGTQVSVSS”, “high polyreactivity”; as for “QVQLVESGGGLVNAGVSLLLSCAASGYIFVQYAMGWNRQAHVKERELVAAISKSGSSTYYADSVKGRFTISRDNAKNTVFLLINSLKPADSAVYYCAVVYTYVSGFTYGYWGQGTQVIVSS”, “low polyreactivity”. In the case of “QVQLVESGGGLVPAGASLRLSCAASGSTSYVYAMGWYRKAPGKERELVAAISGSGGRTYYADSVKGRFTISRDNAKNTVYLQMNSLKPEDTAVYYCNAMPRPSYPFDYWGQGTQVTVSS” it was “high polyreactivity”; in that of “QVQLVESGGGLVPAGGSLRLSCAASGFIFSRYDMGCYRQAPGKERELVAAIDWSGDSTYYADSVKGRFTISRDNAKNTVYFQMNSLKPEDTAVYYCAAGQDGDSDWGQGTQVTVSS”, “low polyreactivity”; in that of “QVQLVESGGGLVPAGGSLRLSCAASGRIFVVYSMGWYRQAPGKERELVASISGGSTNYADSVKGRFTISRDNAKNTVYLQMNSLKPEDTAVYFCGMEYWGQGTQVTVSS”, “low polyreactivity”.

As for “QVQLVESGGGLVPAGGSLRLSCAASGRTFFKNAMGWYRQAPGKERELVARISWNGGDSTYYADSVKGRFTISRDNAKNTVYLQMNSLKPEDTAVYSCAADTSYRPGGSRHGYGYWGQGTQVTVSS”, the “polyreactivity (PSR sort gate)” value is on record as “low polyreactivity”. “QVQLVESGGGLVPAGGSLRLSCAASGRTFRYYGMGWYRQAPGTERELLAAISWRGGSTNYADSVKGRFTISRDNAKNTVYLQMNSLKREDTAVYYCAVGTVYLTYRGYEYWGQGTQVTVSS”: the “polyreactivity (PSR sort gate)” value was “high polyreactivity”. On to “QVQLVESGGGLVPAGGSLRLSCAASGRTFYSYGMGWYRQAPGKERELVASISSSTGSTYYADSVKGRFTISRDNAKNTVYLQMNSLKPEDTAVYYCAKRYSWTRRYDYWGQGTQVTVSS”, for which the “polyreactivity (PSR sort gate)” value is “high polyreactivity”.

Consider “QVQLVESGGGLVPAGGSLRLSCAASGRTVRRNAMGWYRHAPGKERELVADISNGDSTKYADSVKGRFTISRDNAKNTVYLQMNSVNPEDTAVYYCATEVSWHWYQQSVTRMDYWGQGTQVTVSS”, for which the “polyreactivity (PSR sort gate)” value is recorded as “low polyreactivity”. As for “QVQLVESGGGLVPAGGSLRLSCAASGSIFPVYAMGWYRQAPGKERELVASISTGGSTYYADSVKGRFTISRDNAKNTVYLQMNSLKPEDNAVYYCDATGWAYGYGYWGQGTQVTVSS”, the entry is “low polyreactivity”. As for “QVQLVESGGGLVPAGGSLRLSCAASGSTFAKYAMGWYRQAPGKERELVASIRLSGGSTYYADSVKGRFTISRDHAQNTVYLQMNSLKPEDTAVYYCNKQFATFYYGFHYYYWGQGTQVTVSS”, the entry is “low polyreactivity”. As for “QVQLVESGGGLVPAGGSLRLSCAASGSTFEVNAMGWYRQAPGKERELVADITSGGSTNYADSVKGRFTISRDNAKNTVFLQMNSLKPEDTAVYFCARDDWFGFIRVQEMDYWGQGTQVTVSS”, the entry is “low polyreactivity”. For the sequence “QVQLVESGGGLVPAGGSLRLSCAASGSTFNGYPMGWYRQAPGKEREFVATITFSDGSTYYADSVKGRFTISRDNAKNTVYLQMNSLKPEDTAVYYCNVDSRIGYDYWGQGTQVTVSS”, the “polyreactivity (PSR sort gate)” value is on record as “low polyreactivity”. As for “QVQLVESGGGLVPAGGSLRLSCAASGSTFSDYAMGWYRQAPGKERELVASIDSGDSTNYADSVKGRFTISRDNAKNTVYLQMTSLKPEDTAVYFCAADYQNTGARYGYYYWGQGTQVTVSS”, the entry is “low polyreactivity”; as for “QVQLVESGGGLVPAGGSLRLSCAASGSTFVSKAMGWYRQAPGKERELLAAISTSGGSTYNADSVKGRVTISGDNAKNTVYLQMNSLKPEDTAVYYCAKLLAGGFRIWQDYDYWGQGTQVTVSS”, “low polyreactivity”; as for “QVQLVESGGGLVPAGGSLRLSCDASGRTFWFYAMGWYRQAQGKERELVASITSGGGTNYADSVKGRFTISRDNAKNTVYLQMNSLKPEDTAVYYCAADRAYGVLGNEGGYWGQGTQVTVSS”, “high polyreactivity”.

For the origin of these results see the nanobody polyreactivity screen of Harvey et al. (2022).
